Here are results for nine molecules from patent publication US8741844B2, “Use of mutated antithrombins for treating or preventing coagulation disorders” (Universite Paris-Sud XI, priority 2007, dated 2014).

Substitutions are numbered along the chain they refer to. Numbers in names are those of the source.

The subject of the assay is pentasaccharide bound plasma antithrombin (plasma anti-factor Xa activity). Put plainly: Rotachrom heparin anti factor Xa assay in pentasaccharide containing human plasma (competition with plasma antithrombin for pentasaccharide binding). The class given is biochemical. The conditions noted are these: for effect on anti-Xa activity of pentasaccharide containing plasma sample: human plasma, pre-incubation 30 min at 37° C.; for virtual pentasaccharide concentration (residual anti-factor Xa activity): human plasma pool with 3 μg/ml pentasaccharide. Here is the method: Anti factor Xa inhibitory activity of mutated antithrombins AT-R393H(SEQ ID NO: 4), AT-Pro394 (SEQ ID NO: 6), AT-ΔR393-5394 (SEQ ID NO: 18), AT-ΔR393 (SEQ ID NO: 8), AT-ΔS394 (SEQ ID NO: 10), AT-N135Q-R393H(SEQ ID NO: 14), AT-N135Q-Pro394 (SEQ ID NO: 16), AT-N135Q-ΔR393-S394 (SEQ ID NO: 24), AT-N135Q-ΔR393 (SEQ ID NO: 20), AT-N135Q-ΔS394 (SEQ ID NO: 22) is measured in pentasaccharide containing plasma. The plasma concentrations of pentasaccharides are defined on the basis on those measured in patients treated by the pentasaccharide under the conditions of a regular (curative) use of this molecule or in patients presenting an overdose of this drug, knowing that the optimal equilibrium concentration is 1.20-1.26 mg/L and the minimal equilibrium concentration is 0.46-0.62 mg/L during a curative pentasaccharide treatment (monograph, Arixtra®).
The anti factor Xa assay is performed using the Rotachrom® heparin method (Stago) adaptated for absorbance reading on a microplate reader (Dynatech MR 5000), or a STA analyser (Stago).
The procedure consists in mixing 30 μl of pentasaccharide containing plasma sample diluted four times in kinetic buffer, with 75 μl of chromogenic substrate (1 mM, provided in Rotachrom® heparin kit). After 4 min incubation, 75 μl of bovine factor Xa (24 nM, Rotachrom® heparin kit) is added to the plasma-substrate mixture. The factor Xa activity is measured a 405 nm absorbance increase, resulting from cleavage of the chromogenic substrate, using a microplate reader (Dynatech MR 5000). The rate constant (k), proportional to anti-factor Xa activity, is obtained by fitting the substrate hydrolysis curve to equation (3) or (3′).
Firstly, the assay is calibrated in citrated (0.105 M) normal human plasma containing pentasaccharide concentrations ranging from 0 to 3 mg/L. A standard curve is generated and anti-factor Xa activity is expressed as mg of pentasaccharide per liter of plasma.
Secondly, to evaluate the anti factor Xa inhibitory activity of mutated antithrombins, the mutated antithrombin (0-0.6 g/L, preferably 0.15-0.6 g/L, final concentration, in kinetic buffer) is pre-incubated with an equal volume of pentasaccharide (0-3 mg/L, preferably 1-3 mg/L) containing plasma samples, during 30 min at 37° C.
Under these conditions, the mutated antithrombin concentration range from one to four times that of the plasma antithrombin level, which is compatible with a therapeutic use of antithrombin. Indeed, very high doses of mutated antithrombin, with a 5 fold increase in plasma antithrombin level, have already been used during clinical trials without side effects (Leitner J M, Firbas C, Mayr F B, Reiter R A, Steinlechner B, Jilma B., Recombinant human antithrombin inhibits thrombin formation and interleukin 6 release in human endotoxemia. Clin Pharmacol Ther. 2006 January; 79(1):23-34). Anti factor Xa inhibitory activity is then evaluated as previously described.
To estimate whether mutated antithrombin can be used as reversal of pentasaccharide in case of over-dosing, AT-N135Q-R393H(SEQ ID NO: 14) and AT-N135Q-Pro394 (SEQ ID NO: 16) are tested in Rotachrom® heparin assay for their ability to restore factor Xa activity. Under conditions of treatment for prevention of venous thromboembolic events, optimal pentasaccharide concentration ranges between 1.2 and 1.26 μg/mL in plasma. To mimic an over-dosing, pentasaccharide is added to human plasma pool at concentration of 3 μg/ml. Rotachrom® heparin assay is then performed by incubation of plasma over-dosed with pentasaccharide in the presence of mutated antithrombin in a ratio 1/1, 2/1, and 4/1 compared to plasma antithrombin concentration (i.e. 0.15, 0.3, 0.6 g/l). In this ex vivo assay, anti-factor Xa activity is proportional to the amount of pentasaccharide bound natural antithrombin present in tested plasma, which amount is directly proportional to pentasaccharide concentration in plasma. […]

The mark [1] stands for this setting: mutated antithrombin ratio 1/1 to plasma antithrombin (0.15 g/l).

Regarding “AT-R393H: human antithrombin (SEQ ID NO:2) with substitution of the amino acid at position 393 by Histidine”, the “effect on anti-Xa activity of pentasaccharide containing plasma sample” value (“effect on anti-Xa activity” below) was “significant decrease”.
Regarding “AT-N135Q-R393H: human antithrombin with substitution at 393 by Histidine and at 135 by Glutamine”, the “effect on anti-Xa activity” value is given as “significant decrease”. Moreover, under setting [1], the “virtual pentasaccharide concentration (residual anti-factor Xa activity)” value is 1.04 µg/mL. Besides, for the setting “ratio 2/1 (0.3 g/l)”, the “virtual pentasaccharide concentration (residual anti-factor Xa activity)” value amounted to 0.49 µg/mL. Further, the “virtual pentasaccharide concentration (residual anti-factor Xa activity)” value (ratio 4/1 (0.6 g/l)) was determined as 0.29 µg/mL.

B1: AT-N135Q-Pro394: human antithrombin with Proline inserted between 393 and 394 and substitution at 135 by Glutamine (protein, listed as Homo sapiens)
chain: HGSPVDICTAKPRDIPMNPMCIYRSPEKKATEDEGSEQKIPEATNRRVWELSKANSRFATTFYQHLADSKNDNDNIFLSPLSISTAFAMTKLGACNDTLQQLMEVFKFDTISEKTSDQIHFFFAKLNCRLYRKAQKSSKLVSANRLFGDKSLTFNETYQDISELVYGAKLQPLDFKENAEQSRAAINKWVSNKTEGRITDVIPSEAINELTVLVLVNTIYFKGLWKSKFSPENTRKELFYKADGESCSASMMYQEGKFRYRRVAEGTQVLELPFKGDDITMVLILPKPEKSLAKVEKELTPEVLQEWLDELEEMMLVVHMPRFRIEDGFSLKEQLQDMGLVDLFSPEKSKLPGIVAEGRDDLYVSDAFHKAFLEVNEEGSEAAASTAVVIAGRPSLNPNRVTFKANRPFLVFIREVPLNTIIFMGRVANPCVK
With B1, the “effect on anti-Xa activity” value was “significant decrease”. In addition, the “virtual pentasaccharide concentration (residual anti-factor Xa activity)” value under setting [1] was found to be 1.16 µg/mL. For the same molecule, the “virtual pentasaccharide concentration (residual anti-factor Xa activity)” value (ratio 2/1 (0.3 g/l)) was 0.59 µg/mL. In addition, the “virtual pentasaccharide concentration (residual anti-factor Xa activity)” value (ratio 4/1 (0.6 g/l)) worked out at 0.36 µg/mL.

B2: AT-Pro394: human antithrombin with insertion of a Proline between positions 393 and 394 (protein, listed as Homo sapiens)
chain: B1 chain with Q135N
Consider B2, for which the “effect on anti-Xa activity” value was “significant decrease”. Moreover, under “human plasma with 3 μg/ml pentasaccharide”, the “virtual pentasaccharide concentration at 2 or 4 fold molar excess compared to natural antithrombin” value is listed as “decreases to a level comparable to curative pentasaccharide treatment”. Under “human plasma with 3 μg/ml pentasaccharide, ratio 1/1”, the “effect on anti-factor Xa activity at concentration equal to plasmatic antithrombin concentration” value is given as “significantly decrease”.

B3: AT-N135Q-ΔR393: human antithrombin with deletion of position 393 and substitution at 135 by Glutamine (protein, listed as Homo sapiens)
chain: HGSPVDICTAKPRDIPMNPMCIYRSPEKKATEDEGSEQKIPEATNRRVWELSKANSRFATTFYQHLADSKNDNDNIFLSPLSISTAFAMTKLGACNDTLQQLMEVFKFDTISEKTSDQIHFFFAKLNCRLYRKAQKSSKLVSANRLFGDKSLTFNETYQDISELVYGAKLQPLDFKENAEQSRAAINKWVSNKTEGRITDVIPSEAINELTVLVLVNTIYFKGLWKSKFSPENTRKELFYKADGESCSASMMYQEGKFRYRRVAEGTQVLELPFKGDDITMVLILPKPEKSLAKVEKELTPEVLQEWLDELEEMMLVVHMPRFRIEDGFSLKEQLQDMGLVDLFSPEKSKLPGIVAEGRDDLYVSDAFHKAFLEVNEEGSEAAASTAVVIAGSLNPNRVTFKANRPFLVFIREVPLNTIIFMGRVANPCVK
Take B3: the “effect on anti-Xa activity” value is “significant decrease”.

B4: AT-N135Q-ΔS394: human antithrombin with deletion of position 394 and substitution at 135 by Glutamine (protein, listed as Homo sapiens)
chain: B3 chain with S393R
Consider B4, for which the “effect on anti-Xa activity” value was “significant decrease”.

B5: AT-ΔR393: human antithrombin with deletion of the amino acid at position 393 (protein, listed as Homo sapiens)
chain: B3 chain with Q135N
For B5, the “effect on anti-Xa activity” value is on record as “significant decrease”.

B6: AT-N135Q-ΔR393-S394: human antithrombin with deletion of positions 393 and 394 and substitution at 135 by Glutamine (protein, listed as Homo sapiens)
chain: HGSPVDICTAKPRDIPMNPMCIYRSPEKKATEDEGSEQKIPEATNRRVWELSKANSRFATTFYQHLADSKNDNDNIFLSPLSISTAFAMTKLGACNDTLQQLMEVFKFDTISEKTSDQIHFFFAKLNCRLYRKAQKSSKLVSANRLFGDKSLTFNETYQDISELVYGAKLQPLDFKENAEQSRAAINKWVSNKTEGRITDVIPSEAINELTVLVLVNTIYFKGLWKSKFSPENTRKELFYKADGESCSASMMYQEGKFRYRRVAEGTQVLELPFKGDDITMVLILPKPEKSLAKVEKELTPEVLQEWLDELEEMMLVVHMPRFRIEDGFSLKEQLQDMGLVDLFSPEKSKLPGIVAEGRDDLYVSDAFHKAFLEVNEEGSEAAASTAVVIAGLNPNRVTFKANRPFLVFIREVPLNTIIFMGRVANPCVK
Turning to B6, the “effect on anti-Xa activity” value is recorded as “significant decrease”.

B7: AT-ΔR393-S394: human antithrombin with deletion of the amino acids at positions 393 and 394 (protein, listed as Homo sapiens)
chain: B6 chain with Q135N
As for B7, the “effect on anti-Xa activity” value is recorded as “significant decrease”.
